We go through 1 molecule from patent US20230383001A1 (Kyowa Kirin, published 2023).

The target in the experiment is T1, OX40 on OX40-positive helper T-cells in blood of patients (human, UniProt P43489 29-277).
T1 construct: whole, on cells; The cells came from trial patients; also called CD134; human OX40
T1 sequence (looked up): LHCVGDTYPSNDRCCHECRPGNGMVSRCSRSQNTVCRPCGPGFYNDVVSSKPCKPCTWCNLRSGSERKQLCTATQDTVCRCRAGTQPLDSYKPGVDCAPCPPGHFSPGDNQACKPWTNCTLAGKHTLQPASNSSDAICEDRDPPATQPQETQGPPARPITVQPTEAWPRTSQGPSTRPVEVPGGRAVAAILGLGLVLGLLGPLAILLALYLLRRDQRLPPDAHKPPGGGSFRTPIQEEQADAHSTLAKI
Kind of experiment: flow cytometry of patients' blood after dosing: total versus unoccupied OX40-positive helper T cells (receptor occupancy, ex vivo). The method, then: Blood samples for flow cytometry are collected from the subjects who voluntarily agree. When the timing overlaps the study drug administration, the sample is taken before the study drug administration. The OX40-positive cells and the CLA-positive memory T cells in the blood of the patients are counted. When OX40-positive cells in the blood are analyzed, OX40-positive cells in helper T cells are analyzed by using helper T cell markers. Therefore, OX40-positive cells in the blood herein means OX40 positive helper T cells in the blood.

B1: KHK4083 (antibody, human IgG1, kappa, V domains shown)
VH: QITLKESGPTLVKPKQTLTLTCTFSGFSLSTSGMGVGWIRQPPGKALEWLAVIYWDDHQLYSPSLKSRLTITKDTSKNQVVLTMTNMDPVDTATYYCAHRRGAFQHWGQGTLVTVSS
VL: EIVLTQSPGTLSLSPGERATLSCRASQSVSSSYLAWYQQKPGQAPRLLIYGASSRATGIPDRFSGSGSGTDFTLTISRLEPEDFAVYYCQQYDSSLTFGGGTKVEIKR
notes: also called anti-OX40 antibody
Turning to B1, the binding result is “binds”.
